Experimental data: US20090269840A1 (UCB, published 2009)

B1: g165 modified Fab (Fab') fragment, CDP791 (Fab, V domains shown)
VH: EVQLVESGGGLVQPGGSLRLSCAASGFTFSSYGMSWVRQAPGKGLEWVATITSGGSYTYYVDSVKGRFTISRDNAKNTLYLQMNSLRAEDTAVYYCVRIGEDALDYWGQGTLVTVSS
VL: DIQMTQSPSSLSASVGDRVTITCRASQDIAGSLNWLQQKPGKAIKRLIYATSSLDSGVPKRFSGSRSGSDYTLTISSLQPEDFATYYCLQYGSFPPTFGQGTKVEIKR
notes: g165 = gL3gH3; no limits stated; also called CDP791 Fab
B2: g165 FAB-PEG40 (PEGylated modified Fab of g165) (Fab, V domains shown)
VH: B1 VH
VL: B1 VL
modifications: single cysteine of the truncated hinge linked to (mPEG)-lysyl maleimide (two mPEG of about 20,000 Da, about 40,000 Da in all)
notes: no limits stated
B3: mouse monoclonal antibody VR165 (antibody, mouse IgG2a, V domains shown)
VH: EVQLVESGGDLVKPGGSLKLSCAASGFTFSSYGMSWVRQTPDKRLQWVATITSGGSYTYYPDTVKGRFTISRDNAENTLYLQMSSLKSEDTAMYYCVRIGEDALDYWGQGTSVTVSS
VL: DIQMTQSPSSLSASLGERVSLTCRASQDIAGSLNWLRQEPDGTIKRLIYATSSLDSGVPKRFSGSRSGSDYSLTISSLESEDFVDYYCLQYGSFPPTFGGGSKLEIKR
notes: also called mIgG; murine IgG
B4: g165 DFM-PEG40 (PEGylated di-(modified Fab) of g165) (other)
light: DIQMTQSPSSLSASVGDRVTITCRASQDIAGSLNWLQQKPGKAIKRLIYATSSLDSGVPKRFSGSRSGSDYTLTISSLQPEDFATYYCLQYGSFPPTFGQGTKVEIKRTVAAPSVFIFPPSDEQLKSGTASVVCLLNNFYPREAKVQWKVDNALQSGNSQESVTEQDSKDSTYSLSSTLTLSKADYEKHKVYACEVTHQGLSSPVTKSFNRGEC
heavy: EVQLVESGGGLVQPGGSLRLSCAASGFTFSSYGMSWVRQAPGKGLEWVATITSGGSYTYYVDSVKGRFTISRDNAKNTLYLQMNSLRAEDTAVYYCVRIGEDALDYWGQGTLVTVSSASTKGPSVFPLAPSSKSTSGGTAALGCLVKDYFPEPVTVSWNSGALTSGVHTFPAVLQSSGLYSLSSVVTVPSSLGTQTYICNVNHKPSNTKVDKKVEPKSCDKTHTCAA
modifications: hinge cysteine linked to (mPEG)-lysyl bis-maleimide (PEG about 40 kDa)
notes: no limits stated
B5: g165 DFM (di-(modified Fab) of the CDR-grafted antibody g165, naked) (other)
light: B4 light
heavy: B4 heavy
modifications: hinge cysteine cross-linked to the second Fab' (linker of the naked DFM not described)
notes: also called grafted DFM; naked DFM

Columns and labels:
[1] = molecular target: T1, 7 Ig-domain human KDR fused to human Fc (human, UniProt P35968 20-764); test: BIAcore, KDR-Fc captured on anti-Fc chip, fragment passed over
T1 construct: domain: 7 Ig-domain; also called human 7-domain KDR-Fc; KDR-Fc; not shown: human Fc
T1 sequence (P35968 20-764 limits assumed): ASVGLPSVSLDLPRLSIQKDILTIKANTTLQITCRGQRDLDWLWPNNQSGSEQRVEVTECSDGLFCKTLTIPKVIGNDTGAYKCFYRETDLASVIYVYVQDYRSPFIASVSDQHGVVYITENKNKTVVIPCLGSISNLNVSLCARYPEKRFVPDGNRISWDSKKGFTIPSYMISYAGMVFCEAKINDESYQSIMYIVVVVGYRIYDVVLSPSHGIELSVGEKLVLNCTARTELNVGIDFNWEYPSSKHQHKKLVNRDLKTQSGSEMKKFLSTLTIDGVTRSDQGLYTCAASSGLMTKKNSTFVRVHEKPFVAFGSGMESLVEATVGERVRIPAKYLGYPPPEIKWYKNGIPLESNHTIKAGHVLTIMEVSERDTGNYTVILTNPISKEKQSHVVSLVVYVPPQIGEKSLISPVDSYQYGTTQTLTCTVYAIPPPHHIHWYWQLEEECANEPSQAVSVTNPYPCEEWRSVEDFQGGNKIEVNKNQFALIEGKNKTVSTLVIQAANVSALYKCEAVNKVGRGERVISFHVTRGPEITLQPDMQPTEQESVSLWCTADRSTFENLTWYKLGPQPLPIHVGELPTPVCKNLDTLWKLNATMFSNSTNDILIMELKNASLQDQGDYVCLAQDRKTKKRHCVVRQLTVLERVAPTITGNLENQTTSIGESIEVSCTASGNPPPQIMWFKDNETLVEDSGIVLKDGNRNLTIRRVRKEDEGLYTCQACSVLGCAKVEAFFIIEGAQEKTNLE
Excerpt: (§1) 7 Ig-domain human KDR fused to human Fc was captured on a chip coated with anti-Fc, and the various fragments of the CDR grafted antibody g165 and the murine parent antibody VR165 were passed over permitting affinity determination. The table below summarises the results obtained. In this assay format, there is an advantage of divalency as shown by the lower off rates (Kd) of the divalent species. The affinity of the grafted DFM is very similar to the murine IgG, with the DFM-PEG showing a minor reduction of affinity.

[2] = molecular target: T1, 7 Ig-domain human KDR fused to human Fc; test: radioimmunoassay: 7 Ig-domain KDR-human Fc captured by polyclonal anti-Fc on a microtitre plate, fragment added, then 125-I labeled VEGF-165 as the blocked ligand
Procedure: The ability of the fragments to block VEGF binding to KDR was measured in a radioimmunoassay.

[3] = molecular target: T1, 7 Ig-domain human KDR fused to human Fc; test: BIAcore, KDR-Fc captured on anti-Fc chip, antibody passed over
Excerpt: as §1

Binder	Kd [1] [pM]	IC50 (read off the curve) [2] [µg/mL]	Kd [3] [pM]
B1	910	~0.2	–
B2	1070	–	–
B3	–	–	30
B4	41	~0.05	–
B5	29	–	–
